In IntAct's records for PubMed 27918561:

B1: Negative regulator of P-body association (Homo sapiens), A0A0U1RRE5 (parent)
chain: MGDQPCASGRSTLPPGNAREAKPPKKRCLLAPRWDYPEGTPNGGSTTLPSAPPPASAGLKSHPPPPEK
partner: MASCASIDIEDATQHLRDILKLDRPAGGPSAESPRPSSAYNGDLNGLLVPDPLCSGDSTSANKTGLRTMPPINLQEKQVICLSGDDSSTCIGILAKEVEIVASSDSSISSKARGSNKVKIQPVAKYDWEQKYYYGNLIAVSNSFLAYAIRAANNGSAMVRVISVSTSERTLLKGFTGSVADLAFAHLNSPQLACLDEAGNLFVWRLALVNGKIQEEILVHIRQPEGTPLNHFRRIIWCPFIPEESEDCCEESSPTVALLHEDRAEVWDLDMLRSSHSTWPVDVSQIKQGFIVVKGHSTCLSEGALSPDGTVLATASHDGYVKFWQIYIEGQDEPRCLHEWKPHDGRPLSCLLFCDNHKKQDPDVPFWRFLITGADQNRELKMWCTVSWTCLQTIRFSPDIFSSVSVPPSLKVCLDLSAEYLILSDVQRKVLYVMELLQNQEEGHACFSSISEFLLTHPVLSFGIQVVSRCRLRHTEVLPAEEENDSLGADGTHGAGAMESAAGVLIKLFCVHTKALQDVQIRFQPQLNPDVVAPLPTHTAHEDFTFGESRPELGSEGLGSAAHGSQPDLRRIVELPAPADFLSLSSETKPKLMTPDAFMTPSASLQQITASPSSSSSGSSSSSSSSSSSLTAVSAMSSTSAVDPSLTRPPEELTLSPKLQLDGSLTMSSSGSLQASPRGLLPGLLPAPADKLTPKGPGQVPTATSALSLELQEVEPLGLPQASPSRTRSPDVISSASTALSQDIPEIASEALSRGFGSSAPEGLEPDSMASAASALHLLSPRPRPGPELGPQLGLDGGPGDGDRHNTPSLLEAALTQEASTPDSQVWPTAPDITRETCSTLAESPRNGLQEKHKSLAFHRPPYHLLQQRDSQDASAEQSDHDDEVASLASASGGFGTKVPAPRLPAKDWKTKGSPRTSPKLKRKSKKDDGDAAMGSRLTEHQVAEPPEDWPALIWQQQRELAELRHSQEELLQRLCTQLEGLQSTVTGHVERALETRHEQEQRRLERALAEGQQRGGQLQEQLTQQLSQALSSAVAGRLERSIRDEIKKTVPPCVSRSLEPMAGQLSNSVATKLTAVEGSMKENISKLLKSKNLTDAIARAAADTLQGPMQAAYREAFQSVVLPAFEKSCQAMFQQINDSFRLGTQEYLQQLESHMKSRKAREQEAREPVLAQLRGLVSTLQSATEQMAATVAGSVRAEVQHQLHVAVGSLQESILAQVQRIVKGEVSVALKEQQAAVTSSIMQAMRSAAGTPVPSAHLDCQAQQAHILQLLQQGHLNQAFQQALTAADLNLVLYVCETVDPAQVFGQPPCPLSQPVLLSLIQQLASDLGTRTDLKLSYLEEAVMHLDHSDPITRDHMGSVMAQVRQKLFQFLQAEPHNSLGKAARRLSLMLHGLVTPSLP

Variants of: B1
Conditions: with edc4_human EDC4, Q6P2E9

Variant	effect of a mutation on the interaction
K22A	with no effect
P23A	with no effect
P24A	with no effect
K25A	with no effect
K26A	with no effect
R27A	with no effect
C28A	with no effect
L29A	with no effect
L30A	disrupting interaction strength
P32A	with no effect
R33A	with no effect
W34A	disrupting interaction strength
D35A	with no effect
Y36A	with no effect
P37A	with no effect
E38A	with no effect
G39A	with no effect
T40A	with no effect
P41A	with no effect
